The source of these data is the RNAGym collection of RNA variant scans (doi:10.1093/nar/gkz1192).

B1: CPEB3 Ribozyme (parent)
chain: UAACAGGGGGCCACAGCAGAAGCGUUCACGUCGCAGCCCCUGUCAGAUUCUGGUGAAUCUGCGAAUUCUGCUGUAUAUCUC

In the series the parent is B1. As to the kind of experiment: self-cleavage, relative activity (ratio to wild type); higher = more cleavage; in vitro, sequencing. Summed up: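 Relative activity was defined as the cleaved/total read fraction for a variant divided by the same fraction for the unmutated ribozyme. CPEB3 self-cleaving ribozyme libraries were made by rounds of error-prone PCR, barcoded, and transcribed in vitro with T7 RNA polymerase for 5 hours at 37°C, and cleavage ran through transcription plus a 15 min DNase I step before EDTA. Illumina sequencing of template-switched reverse transcripts gave the reads, and DNA sequencing mapped the barcodes. Averages come from three batches, using variants with at least 5 reads.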
Regarding C27G U72C, the self-cleavage was 0.11.
Turning to A28G G63U, the self-cleavage is 0.8.
The same measure for A28G G63A: 0.38; for A28G C50G: 0.29.
The figure for A28G C50A is 0.48; for A28G C50U it is 0.48.
For A28C G61C, the self-cleavage worked out at 0.19.
The same measure for A28C G61U: 0.2; for A28C G61A: 0.48.
The figure for A28G G46A is 0.09; for A28G G46C it is 0.08.
The figure for A28C U43C is 0.4; for A28C U43A it is 0.59.
On to C27A G46U, for which the self-cleavage worked out at 0.18.
The same measure for A28G A35C: 0.53; for A28G A35G: 1.18; for A28G A35U: 0.27.
For the variant U26G U72A, the self-cleavage came out at 0.14.
The same measure for U26G U72C: 0.31; for U26G A77G: 0.34; for A28G C32A: 0.13.
The same measure for A28G C32U: 0.24.
The figure for C27G U74C is 0.41; for A28G G30C it is 0.32; for A28G G30A it is 0.2.
Take A28G G53A: the self-cleavage is 0.78.
With A28G C40U, the self-cleavage stood at 0.48.
A28G C40G: the self-cleavage was found to be 0.22.
The same measure for U26G A56G: 0.24; for U26G A56U: 0.1; for A28G A45C: 0.33.
The same measure for A28G A45G: 0.4; for A28G A45U: 0.31; for C27U G63A: 0.22.
The same measure for A28C C79U: 0.63; for C27U A47U: 0.44; for C27U A47G: 0.28.
In the case of A28C U31A, the self-cleavage is 0.55.
The same measure for A28C U31C: 0.35; for A28C U31G: 0.38; for C27A U78C: 0.19.
The figure for U26G U58C is 0.36.
The figure for U26G C68U is 0.35.
For C27U U80A, the self-cleavage was 0.29.
The same measure for C27U U80C: 0.58.
The figure for A28C A47C is 0.18.
The figure for C27A C44G is 0.07.
Regarding A28G C34A, the self-cleavage was 0.32.
Consider A28G C34G, for which the self-cleavage came to 0.35.
As for A28G C34U, the self-cleavage was 0.32.
The same measure for C27A A65G: 0.25; for U26G C38A: 0.58; for U26G G53A: 0.24.
For A28C G70U, the self-cleavage amounted to 0.11.
As to A28C G70A, the self-cleavage turned out to be 0.27.
The figure for A28C U51C is 0.51.
The figure for A28C U51A is 0.53; for A28C U51G it is 0.38.
The figure for A28C A56U is 0.23; for A28C A56G it is 0.3; for C27A A56U it is 0.09.
Take C27U U31C: the self-cleavage came out at 0.46.
The same measure for C27U C38U: 0.32; for A28C A45G: 0.39.
The figure for U26G A45U is 0.17.
For U26G A45G, the self-cleavage turned out to be 0.17.
The same measure for U26G A45C: 0.09; for U26G U48A: 0.37; for U26G U48C: 0.22.
The figure for C27G U80A is 0.22; for A28G C59U it is 0.54.
The figure for A28G C59A is 0.2.
As to A28C U48C, the self-cleavage was determined as 0.46.
The same measure for A28C U48A: 0.37; for A28C U58G: 0.2; for A28C U58C: 0.27.
The figure for A28G C71U is 0.15; for A28G C71A it is 0.14.
The figure for C27A A64G is 0.33; for C27A A64U it is 0.2.
As for A28C A65G, the self-cleavage came out at 0.24.
The same measure for A28C A65U: 0.3; for U26G U78C: 0.3; for U26G U78A: 0.51.
The same measure for A28G C62U: 0.27.
In the case of A28G C62G, the self-cleavage came to 0.21.
In the case of A28G C62A, the self-cleavage amounted to 0.23.
The same measure for C27A C81U: 0.11; for A28C C32A: 0.24.
Consider C27U A35G, for which the self-cleavage amounted to 0.41.
The same measure for C27U A35U: 0.32.
The figure for U26G U51G is 0.33; for U26G U51A it is 0.42; for C27U G33U it is 0.34.
Turning to A28G G61U, the self-cleavage was found to be 0.5.
Take A28G G61A: the self-cleavage came out at 0.38.
The figure for A28G G61C is 0.15.
C27A U60C: the self-cleavage turned out to be 0.18.
The same measure for C27G C29U: 0.29; for C27G A56G: 0.14.
The same measure for A28C A57G: 0.45.
The figure for A28G C44U is 0.28; for A28G C44A it is 0.12.
Consider C27A A28G, for which the self-cleavage was determined as 0.27.
The figure for U26G C62A is 0.13.
The figure for C27A U51C is 0.21.
The same measure for C27A U51A: 0.38; for A28G G42U: 0.26.
As for A28G G42C, the self-cleavage amounted to 0.18.
With A28G G42A, the self-cleavage turned out to be 0.46.
The same measure for C27A A35G: 0.52; for C27A C59A: 0.11; for A28C U54C: 0.53.
The same measure for A28C U54G: 0.36; for A28C A35G: 0.98; for A28C A35C: 0.4.
In the case of A28C A35U, the self-cleavage turned out to be 0.27.
The figure for C27U U41C is 0.2.
The same measure for C27U U41A: 0.2; for C27U U41G: 0.11; for U26G U41C: 0.4.
U26G U41A: the self-cleavage stood at 0.28.
Consider A28C U41C, for which the self-cleavage is 0.28.
The same measure for A28C U41A: 0.2; for C27U A77U: 0.09; for A28G C29U: 0.52.
The same measure for C27U A56G: 0.52.
On to C27U A56U, for which the self-cleavage stood at 0.21.
For C27A U54C, the self-cleavage is 0.56.
The same measure for C27A U76A: 0.55.
Turning to C27A U76C, the self-cleavage stood at 0.21.
The same measure for C27A U43C: 0.18; for C27A U43A: 0.39; for A28G C68A: 0.17.
The same measure for A28G C68U: 0.48; for A28G C68G: 0.14.
The figure for C27G A75G is 0.3; for A28C C62U it is 0.06.
Turning to A28C U60A, the self-cleavage is 0.4.
Turning to A28C U60C, the self-cleavage is 0.29.
The same measure for A28C G73U: 0.55; for U26G C27U: 0.63; for C27A U72C: 0.19.
C27U A65U: the self-cleavage is 0.14.
The figure for C27U A65G is 0.24.
For the variant C27U A65C, the self-cleavage was 0.1.
For the variant U26G U60C, the self-cleavage was 0.11.
The figure for C27A A57G is 0.08.
The figure for A28G G55C is 0.39; for A28G G55U it is 0.68.
The figure for A28G G55A is 0.33.
In the case of C27A U69A, the self-cleavage worked out at 0.08.
The same measure for C27G U49A: 0.28; for A28G G52A: 0.76; for A28G G52C: 0.42.
The same measure for A28G C37A: 0.21; for A28G C37U: 0.43.
On to C27U U76C, for which the self-cleavage came to 0.19.
The same measure for C27U U76A: 0.28; for A28C G55U: 0.21.
The same measure for U26G A35G: 0.8.
The same measure for U26G A35U: 0.13; for U26C U76C: 0.52; for U26C U76G: 0.55.
For U26C U76A, the self-cleavage stood at 0.53.
The figure for C27U U60C is 0.14; for U26G A64G it is 0.25.
